Reference: patent US20190092858A1

Target: plasma proteins (fresh human plasma)
Assay: size exclusion chromatography (Sephadex G-50 spin columns) with gamma counting, after incubation in fresh human plasma at 37 C for up to 4 h

“99mTc-HYNIC-P8RI (obtained with tricine/EDDA as coligands) (peptide)” showed a protein binding (% bound to plasma proteins) of under 5%.
